Assay results reported in patent US20220193232A1.
One block for each substance: values may come before it.

Key:
Fc-receptors = experiment: cell-based or functional assay
[1] = molecular target: kappa myeloma antigen (KMA) (human); experiment: cell-based or functional assay

enrichment of CAR expressing T-cells in culture with PBMC alone (% of CD3+ T-cells) (Fc-receptors): 28
Substance: KM.CAR-hCH2CH3-28z (receptor)

CAR expression (GFP) in culture with JJN3 [1]: 17%
expansion of CAR T-cell culture with JJN3 [1]: 5 fold
Substance: KM.CAR_h_28TM_41BBz (from UniProt P10747 153-179; Q07011 214-255) (receptor)

CAR expression (GFP) in culture in the presence of JJN3 [1]: 5%
expansion of CAR T-cell culture in the presence of JJN3 [1]: 8 fold
Substance: KM.CAR_8a_28TM_41BBz (from UniProt P01732 138-182; P10747 153-179; Q07011 214-255) (receptor)
